Test results from PMC5539292, “Calcium Ion Induced Structural Changes Promote Dimerization of Secretagogin, Which Is Required for Its Insulin Secretory Function” (Scientific Reports, 2017).

How the values were obtained:
[1] = target: recombinant human secretagogin (hSCGN) wild type (human) (UniProt O76038); test: SEC; 450 µg protein on Superdex 200 HR 10/30 in PBS, 0.5 mL/min; samples pretreated with EGTA and DTT, then treated with Ca^2+ and H2O2
[2] = target: the molecule itself; test: non-reducing SDS-PAGE of disulfide-linked dimers; recombinant protein incubated with 0 or 2 mM CaCl2 at R.T. for 15 min, then H2O2 at 37°C for 1 h; Coomassie blue staining

| stoichiometry N [1] | Molecule | binding result [2] |
| --- | --- | --- |
| 2 | recombinant human secretagogin (hSCGN) wild type (from UniProt O76038 1-276) (natural protein) | – |
| – | purified hSCGN ΔEF1 (deletion of 1-52 a.a.) (domain or fragment, human, UniProt O76038 53-276, looked up, human secretagogin (SCGN) without residues 1-52 (EF1); The methods describe ΔEF1 only as a pcDNA3.1 construct; also called ΔEF1 protein; recombinant ΔEF1; source: purified recombinant protein) TVMKANLHKVKQQFMTTQDASKDGRIRMKELAGMFLSEDENFLLLFRRENPLDSSVEFMQIWRKYDADSSGFISAAELRNFLRDLFLHHKKAISEAKLEEYTGTMMKIFDRNKDGRLDLNDLARILALQENFLLQFKMDACSTEERKRDFEKIFAYYDVSKTGALEGPEVDGFVKDMMELVQPSISGVDLDKFREILLRHCDVNKDGKIQKSELALCLGLKINP | binds |
